For experiment [1], the target named is HCV E2 glycoprotein, genotype 1a (H77c) (hepatitis C virus genotype 1a, H77c) (UniProt P27958).
For experiment [2], the target named is E2 of genotype 1a HCVcc (hepatitis C virus genotype 1a). Nature of the experiment: cell-based or functional assay.
Experiment [3] has as its target CD81 (UniProt P60033). Nature of the experiment: cell-based or functional assay.

CD81, sequence (P60033 whole entry): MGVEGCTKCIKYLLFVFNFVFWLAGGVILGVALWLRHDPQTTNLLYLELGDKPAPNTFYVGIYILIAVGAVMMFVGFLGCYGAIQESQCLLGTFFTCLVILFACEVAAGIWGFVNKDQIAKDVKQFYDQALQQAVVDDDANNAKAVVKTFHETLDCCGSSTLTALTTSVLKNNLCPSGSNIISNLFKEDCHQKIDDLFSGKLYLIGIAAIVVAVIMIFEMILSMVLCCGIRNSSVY

On to CBH-5 (antibody), for which, in experiment [1], the % reduction of E2 binding to CD81 is more than 90%. Besides, the 50% inhibition, neutralization of 1a HCVcc in experiment [2] was more than 100 µg/mL.
In turn, “HCV 1a E2 with alanine substitution at 420 (from UniProt P27958 384-746)” registered a reduction in viral infectivity, mutant 1a HCVpp (luciferase) in experiment [3] of more than 95%.
Substance “HCV 1a E2 with alanine substitution at 428 (from UniProt P27958 384-746)” showed a reduction in viral infectivity, mutant 1a HCVpp (luciferase) in experiment [3] of 84%.
The substance “HCV 1a E2 with alanine substitution at 429 (from UniProt P27958 384-746)” registered a reduction in viral infectivity, mutant 1a HCVpp (luciferase) in experiment [3] of more than 95%.
In experiment [3], “HCV 1a E2 with alanine substitution at 437 (from UniProt P27958 384-746)” showed a reduction in viral infectivity, mutant 1a HCVpp (luciferase) of more than 95%.
Same read-out and setting: as for “HCV 1a E2 with alanine substitution at 441 (from UniProt P27958 384-746)”, the figure is more than 95%.
Same read-out and setting: with “HCV 1a E2 with alanine substitution at 442 (from UniProt P27958 384-746)” the figure was more than 95%.
On the same count and under the same terms, as for “HCV 1a E2 with alanine substitution at 443 (from UniProt P27958 384-746)”, the figure is 79%; as for “HCV 1a E2 with alanine substitution at 446 (from UniProt P27958 384-746)”, 60%.
Turning to “HCV 1a E2 with alanine substitution at 613 (from UniProt P27958 384-746)”, in experiment [3], the reduction in viral infectivity, mutant 1a HCVpp (luciferase) is more than 95%.
On the same count and under the same terms, as for “HCV 1a E2 with alanine substitution at 616 (from UniProt P27958 384-746)”, the figure is more than 95%.

The values above are taken from patent US20130084301A1.
